Assay results from US20260219283A1.
Where “and” joins values, the source holds several entries; their conditions need not be identical. Equal values may be shown once.

Molecular target: semi-synthetic pS129-α-synuclein (Proteos Inc.) (Homo sapiens (Human)) (UniProt P37840)
Assay: sandwich ECLIA, freshly prepared pS129-α-syn standard at 100 ng/mL

Substance: anti-pS129-α-syn monoclonal antibody EP1536Y
- ECLIA signal at 100 ng/mL standard: 500000 and 1.1e+06
